Bridge positions count the residues as written; N and C are the ends. Ends that are not written are not given here.
biological target: trypsin; assay: other, trypsin inhibition

Row | Binder | Ki
1 | VQQCSEIAGAKPC (disulfide 4-13) [Seq04] | 42 nM
2 | IPRCRKMPGVKMC (disulfide 4-13; not fully specified) [Seq09] | 21.8 nM
3 | IPRCRKMPGVKMC (disulfide 4-13; not fully specified) [Seq08] | 24.8 nM
4 | IPRCRKMPGVKMC (disulfide 4-13) [Seq01] | 22.5 nM
5 | VEQCTIIGDAKDC (disulfide 4-13) [Seq03] | 63.6 nM
6 | IPRCRKMPGVKMC (disulfide 4-13; not fully specified) [Seq07] | 20 nM
7 | LHRCDKIADAKPC (disulfide 4-13) [Seq05] | 44 nM
8 | IPRCRAMPGVKMC (disulfide 4-13) [Seq06] | 24.2 nM
9 | VEQCTIIGDEKDC (disulfide 4-13) [Seq02] | 24 nM
